Data from patent US20260209362A1 (VIB VZW, published 2026).
Where a chain is given by its changes, count along the chain named. One block for each binder: values may come before it.

Experiments:
[1] = molecular target: T1, biotinylated recombinant mouse IL-12Rβ2 (mouse, UniProt P97378 24-637, random biotinylated); experiment: ELISA, P.E., biotinylated antigen
T1 construct: Recombinant protein produced in-house; also called mIL-12RB2; mouse IL-12RB2
T1 sequence: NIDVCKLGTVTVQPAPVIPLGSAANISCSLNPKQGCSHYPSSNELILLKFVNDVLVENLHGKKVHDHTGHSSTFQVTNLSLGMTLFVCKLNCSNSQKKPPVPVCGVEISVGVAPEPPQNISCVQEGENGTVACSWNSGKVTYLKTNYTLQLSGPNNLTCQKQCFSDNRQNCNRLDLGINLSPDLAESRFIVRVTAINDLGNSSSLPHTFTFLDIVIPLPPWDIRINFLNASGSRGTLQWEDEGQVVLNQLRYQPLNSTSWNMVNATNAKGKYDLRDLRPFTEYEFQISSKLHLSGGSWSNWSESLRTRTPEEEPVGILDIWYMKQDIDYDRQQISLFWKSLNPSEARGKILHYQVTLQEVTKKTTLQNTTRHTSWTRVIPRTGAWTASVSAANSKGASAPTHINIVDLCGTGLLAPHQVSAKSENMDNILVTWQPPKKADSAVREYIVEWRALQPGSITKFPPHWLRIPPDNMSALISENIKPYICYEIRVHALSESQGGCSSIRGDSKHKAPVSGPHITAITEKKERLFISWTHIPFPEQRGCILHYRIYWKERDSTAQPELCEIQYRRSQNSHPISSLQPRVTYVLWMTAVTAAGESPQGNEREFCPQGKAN

[2] = molecular target: T2, biotinylated recombinant human IL-12Rβ2 (human, UniProt Q99665 24-622, random biotinylated); experiment: ELISA, P.E., biotinylated antigen
T2 construct: Recombinant protein produced in-house; also called hIL-12RB2; human IL-12RB2
T2 sequence: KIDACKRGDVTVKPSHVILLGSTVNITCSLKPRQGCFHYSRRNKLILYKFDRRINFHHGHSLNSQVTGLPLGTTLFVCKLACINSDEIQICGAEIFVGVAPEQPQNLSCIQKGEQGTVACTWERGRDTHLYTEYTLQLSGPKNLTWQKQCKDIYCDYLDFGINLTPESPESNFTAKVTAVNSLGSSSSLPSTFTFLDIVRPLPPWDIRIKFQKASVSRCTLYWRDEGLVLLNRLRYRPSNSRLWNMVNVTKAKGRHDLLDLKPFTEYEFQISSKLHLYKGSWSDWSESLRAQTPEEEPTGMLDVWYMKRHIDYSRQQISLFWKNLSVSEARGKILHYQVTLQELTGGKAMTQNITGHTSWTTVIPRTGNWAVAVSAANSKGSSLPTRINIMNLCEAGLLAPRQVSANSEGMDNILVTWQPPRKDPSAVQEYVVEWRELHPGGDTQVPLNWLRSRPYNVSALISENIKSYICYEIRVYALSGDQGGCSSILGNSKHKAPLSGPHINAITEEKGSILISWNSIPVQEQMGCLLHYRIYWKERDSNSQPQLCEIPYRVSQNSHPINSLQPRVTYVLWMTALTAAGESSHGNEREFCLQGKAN

[3] = molecular target: T2, biotinylated recombinant human IL-12Rβ2; experiment: BLI, P.E., off-rate ranking

B1: anti-IL-12Rβ2 VHH clone 3CAHS142 (clone ID 20401) (VHH, not shown: small tags and cut ends)
VHH: QVQLQESGGGLVQAGESLTLSCIASGVIKDYAMGWFRQAPGKEREFVAAISWSGVSIYYADSVKGRFTISRDNAKNTVYLQMNSLEPEDTAVYYCAGTEGAYTVAGGSTFGYDMDYWGKGTQVTVSS
notes: periplasmic extract
ELISA mIL-12RB2/control [1]: 1.07
ELISA hIL-12RB2/control [2]: 4.98
Response [3]: 0.352
koff [3]: 0.00324 s⁻¹

B2: anti-IL-12Rβ2 VHH clone 3CAHS41 (clone ID 20394) (VHH, not shown: small tags and cut ends)
VHH: QVQLQESGGGLVQAGDSLRLSCAASGRTFDTYIVGWFRQAPGKEREFVSALSWSDDTTIRDDSLRGRFTISRDNAKNTVYLLMNSLKPEDTAVYYCAAKAKPPAATWSSYRNREWYDYWGQGTQVTVSS
notes: periplasmic extract
ELISA mIL-12RB2/control [1]: 1.35
ELISA hIL-12RB2/control [2]: 8.77
Response [3]: 0.609
koff [3]: 0.00441 s⁻¹

B3: anti-IL-12Rβ2 VHH clone 3CAHS180 (clone ID 20410) (VHH, not shown: small tags and cut ends)
VHH: B2 VHH with I70L
notes: periplasmic extract
ELISA mIL-12RB2/control [1]: 1.19
ELISA hIL-12RB2/control [2]: 4.78
Response [3]: 0.376
koff [3]: 0.00265 s⁻¹

B4: anti-IL-12Rβ2 VHH clone 3CRHS142 (clone ID 20434) (VHH, not shown: small tags and cut ends)
VHH: QVQLQESGGGLVQAGGSLRLSCVSSQTLVGIEAMGWYRQAPGKQRELVALITLNGGTFYADSVKGRFTISRDVAEHMLYLEMNSLNPEDTAVYFCVAGVESDNEEPTYWGQGTQVTVSS
notes: periplasmic extract
ELISA mIL-12RB2/control [1]: 0.999
ELISA hIL-12RB2/control [2]: 23.7
Response [3]: 0.205
koff [3]: 0.00275 s⁻¹

B5: anti-IL-12Rβ2 VHH clone 2CRHS4 (clone ID 20411) (VHH, not shown: small tags and cut ends)
VHH: B4 VHH with A14P, E75G
notes: periplasmic extract
ELISA mIL-12RB2/control [1]: 1.07
ELISA hIL-12RB2/control [2]: 12.5
Response [3]: 0.279
koff [3]: 0.00311 s⁻¹

B10: anti-IL-12Rβ2 VHH clone 3CRHS99 (clone ID 20427) (VHH, not shown: small tags and cut ends)
VHH: QVQLQESGGGLVQPGGSLRLSCKASGFTFSTYAMSWVRQAPGKGLEWVSAINSGGLSTDYADSVEGRFTISRDDAKNMLFLQMNSLKAEDTARYYCAKYEDCSDYMCHRDRAGYWGQGTQVTVSS
notes: periplasmic extract
ELISA mIL-12RB2/control [1]: 0.908
ELISA hIL-12RB2/control [2]: 3.13
Response [3]: 0.259
koff [3]: 0.00405 s⁻¹

B12: anti-IL-12Rβ2 VHH clone 3CAH48 (clone ID 20360) (VHH, not shown: small tags and cut ends)
VHH: QVQLQESGGGLVQAGGSLRLSCAASGRTFSSYAMGWFRQGPGKEREFVAAISWSGVSTYYADSVKGRFTISRDNAKNTVYLQMNSLRPEDTAVYYCAATEGAYTVAGGSTFGYDMDYWGKGTQVTVSS
notes: periplasmic extract
ELISA mIL-12RB2/control [1]: 1.11
ELISA hIL-12RB2/control [2]: 9.56
Response [3]: 0.759
koff [3]: 0.00443 s⁻¹

Results, then the binder that gave them:

ELISA mIL-12RB2/control [1]: 1.19
ELISA hIL-12RB2/control [2]: 18.3
Response [3]: 0.416
koff [3]: 0.00443 s⁻¹
B6: anti-IL-12Rβ2 VHH clone 3CRHS67 (clone ID 20424) (VHH, not shown: small tags and cut ends)
VHH: B4 VHH with R19T
notes: periplasmic extract

ELISA mIL-12RB2/control [1]: 1.03
ELISA hIL-12RB2/control [2]: 24.5
Response [3]: 0.282
koff [3]: 0.00297 s⁻¹
B7: anti-IL-12Rβ2 VHH clone 3CRHS156 (clone ID 20437) (VHH, not shown: small tags and cut ends)
VHH: B4 VHH with A14S, T68A
notes: periplasmic extract

ELISA mIL-12RB2/control [1]: 1.06
ELISA hIL-12RB2/control [2]: 23.2
Response [3]: 0.149
koff [3]: 0.00247 s⁻¹
B8: anti-IL-12Rβ2 VHH clone 3CRHS166 (clone ID 20439) (VHH, not shown: small tags and cut ends)
VHH: B4 VHH with A14S
notes: periplasmic extract

ELISA mIL-12RB2/control [1]: 1.89
ELISA hIL-12RB2/control [2]: 15.9
Response [3]: 0.487
koff [3]: 0.00453 s⁻¹
B9: anti-IL-12Rβ2 VHH clone 3CRH59 (clone ID 20385) (VHH, not shown: small tags and cut ends)
VHH: QVQLQESGGGLVQPGGSLRLSCTASGFAFSSYWMYWVRQTPGKGFEWVSVVNPGGEITYYGDSMEDRFTISRDNAKNTLYLQMNSLKPEDTGLYYCARDRTTIDYTRTYYRGGQGTQVTVSS
notes: periplasmic extract

ELISA mIL-12RB2/control [1]: 1.03
ELISA hIL-12RB2/control [2]: 10.2
Response [3]: 0.297
koff [3]: 0.00355 s⁻¹
B11: anti-IL-12Rβ2 VHH clone 3CRHS106 (clone ID 20429) (VHH, not shown: small tags and cut ends)
VHH: B10 VHH with I51V, A88P
notes: periplasmic extract
